Measured values published in US8663616B2, “Enzymatic peracid generation for use in oral care products” (E I du Pont de Nemours and Company, priority 2010, dated 2014).

How the values were obtained:
[1] = Peracetic acid generated in solution by CE-7 perhydrolase fusions (Example 8); assay type: biochemical; conditions: 0.5 μM enzyme, 100 mM triacetin, 100 mM H2O2, pH 7.2, 10 min, 37° C.; no enzyme 378.9
Description: (§1) The detection of peracetic acid followed the method described in Pinkernell et. al. (Analyst, 1997, 122, 567) using colorimetric detection of 2,2′-azino-bis(3-ethylbenzothiazoline(-6-sulfonate (ABTS) oxidation by peracetic acid. Following the formation of peracetic acid with the addition of triacetin and hydrogen peroxide, 90 μL of solution was added to 10 μL of 0.1 M H3PO4 in a well plate. 50 μL of 1 M acetic acid, 50 μL of 0.5 g/L ABTS and 50 μL of 0.002 g/L of KI was added. The solution was allowed to develop for 5 min. The absorbance of the solution was measured at 405 nm using a microplate reader. The peracetic acid concentration was calculated based on a standard curve developed simultaneously using peracetic acid reagent solution.
Perhydrolase enzymes listed in Table 6 were assessed for solution activities. The method to measure the perhydrolase in solution activity was described in Example 7 by making a 500 μL solution containing 0.5 μM of enzyme, 100 mM triacetin, 100 mM H2O2 in 100 mM phosphate buffer, pH 7.2. The solution was mixed and incubated for 10 min at 37° C. A 10 μL aliquot was removed and diluted for detection as described in Example 7. Peracetic acid concentration was determined using a standard curve generated with a stock solution of peracetic acid (Aldrich). The experiment was also performed with no enzyme present as a control.

[2] = Peracetic acid generation from hydroxyapatite bound CE-7 perhydrolase fusions (Example 8); assay type: biochemical; conditions: for Peracetic acid (ppm): hydroxyapatite particles exposed to 10 μM enzyme, washed, 100 mM triacetin, 100 mM H2O2, 30 min, 37° C., no enzyme 30-118.8
Description: as §1
To assess binding of these constructs to hydroxyapatite, 33 mg of hydroxyapatite particles (Macro-prep Ceramic Hydroxyapatite TYPE I, 80 μm size BioRad, Hercules, Calif.), were washed with 10 mM phosphate buffer at pH 7.2. After removing the supernatant, enzyme stock solution was added to the hydroxyapatite dispersion to a final concentration of 10 μM and incubated for 30 min in a microcentrifuge tube with gentle agitation. Each sample was centrifuged for 1 min at 10000 rpm. The supernatant was removed and additional buffer was added. The particles were resuspended and transferred to a new tube. The process was repeated two additional times. The hydroxyapatite bound enzyme activity was measured by adding a 500 μl solution containing 100 mM triacetin, 100 mM H2O2 in 100 mM phosphate buffer, pH 7.2. The solution was incubated for 30 min, at 37° C. An aliquot was removed and mixed with H3PO4 and properly diluted for detection via ABTS oxidation as described in Example 7. The experiments were performed at different day with no enzyme as control for each experiment.

Molecule | PAA (ppm) [1] | Peracetic acid (ppm) [2] | activity after binding to hydroxyapatite (in words) ([2]; targeted vs untargeted B. pumilus fusion)
EZ-29: Bpu-link1-DenP308-H6, SEQ ID NO: 453 (protein) MQLFDLSLEELKKYKPKKTARPDFSDFWKKSLEELRQVEAEPTLESYDYPVKGVKVYRLTYQSFGHSKIEGFYAVPDQTGPHPALVRFHGYNASYDGGIHDIVNWALHGYATFGMLVRGQGGSEDTSVTPGGHALGWMTKGILSKDTYYYRGVYLDAVRALEVIQSFPEVDEHRIGVIGGSQGGALAIAAAALSDIPKVVVADYPYLSNFERAVDVALEQPYLEINSYFRRNSDPKVEEKAFETLSYFDLINLAGWVKQPTLMAIGLIDKITPPSTVFAAYNHLETDKDLKVYRYFGHEFIPAFQTEKLSFLQKHLLLSTGPGSGGAGSPGSAGGPGSDPTKPPRTPTANTSRPHHNFGSGGGGSPHHHHHH | 2273.5 ppm | 1299.8 ppm | higher binding activity compared to the untargeted EZ-27
EZ-30: Mlo-link1-H6, SEQ ID NO: 454 (protein) MPFPDLIQPELGAYVSSVGMPDDFAQFWTSTIAEARQAGGEVSIVQAQTTLKAVQSFDVTFPGYGGHPIKGWLILPTHHKGRLPLVVQYIGYGGGRGLAHEQLHWAASGFAYFRMDTRGQGSDWSVGETADPVGSTSSIPGFMTRGVLDKNDYYYRRLFTDAVRAIDALLGLDFVDPERIAVCGDSQGGGISLAVGGIDPRVKAVMPDVPFLCDFPRAVQTAVRDPYLEIVRFLAQHREKKAAVFETLNYFDCVNFARRSKAPALFSVALMDEVCPPSTVYGAFNAYAGEKTITEYEFNNHEGGQGYQERQQMTWLSRLFGVGGPGSGGAGSPGSAGGPGSHHHHHH | 468.8 ppm | 658.5 ppm | 
EZ-31: Mlo-link1-HC263-H6, SEQ ID NO: 455 (protein) MPFPDLIQPELGAYVSSVGMPDDFAQFWTSTIAEARQAGGEVSIVQAQTTLKAVQSFDVTFPGYGGHPIKGWLILPTHHKGRLPLVVQYIGYGGGRGLAHEQLHWAASGFAYFRMDTRGQGSDWSVGETADPVGSTSSIPGFMTRGVLDKNDYYYRRLFTDAVRAIDALLGLDFVDPERIAVCGDSQGGGISLAVGGIDPRVKAVMPDVPFLCDFPRAVQTAVRDPYLEIVRFLAQHREKKAAVFETLNYFDCVNFARRSKAPALFSVALMDEVCPPSTVYGAFNAYAGEKTITEYEFNNHEGGQGYQERQQMTWLSRLFGVGGPGSGGAGSPGSAGGPGSPSAQSQLPDKHSGLHERAPQRYGPEPEPEPEPIPEPPKEAPVVIEKPKPKPKPKPKPPAHDHKNQKETHQRHAAGSGGGGSPHHHHHH | 434.9 ppm | 241.4 ppm | 
EZ-32: Mlo-link1-DenP308-H6, SEQ ID NO: 456 (protein) MPFPDLIQPELGAYVSSVGMPDDFAQFWTSTIAEARQAGGEVSIVQAQTTLKAVQSFDVTFPGYGGHPIKGWLILPTHHKGRLPLVVQYIGYGGGRGLAHEQLHWAASGFAYFRMDTRGQGSDWSVGETADPVGSTSSIPGFMTRGVLDKNDYYYRRLFTDAVRAIDALLGLDFVDPERIAVCGDSQGGGISLAVGGIDPRVKAVMPDVPFLCDFPRAVQTAVRDPYLEIVRFLAQHREKKAAVFETLNYFDCVNFARRSKAPALFSVALMDEVCPPSTVYGAFNAYAGEKTITEYEFNNHEGGQGYQERQQMTWLSRLFGVGGPGSGGAGSPGSAGGPGSDPTKPPRTPTANTSRPHHNFGSGGGGSPHHHHHH | 497.7 ppm | 419.3 ppm | 
EZ-33: Lla-link1-H6, SEQ ID NO: 457 (protein) MTKINNWQDYQGSSLKPEDFDKFWDEKINLVSNHQFEFELIEKNLSSKVVNFYHLWFTAIDGAKIHAQLIVPKNLKEKYPAILQFHGYHCDSGDWVDKIGIVAEGNVVLALDCRGQGGLSQDNIQTMGMTMKGLIVRGIDEGYENLYYVRQFMDLITATKILSEFDFVDETNISAQGASQGGALAVACAALSPLIKKVTATYPFLSDYRKAYELGAEESAFEELPYWFQFKDPLHLREDWFFNQLEYIDIQNLAPRIKAEVIWILGGKDTVVPPITQMAAYNKIQSKKSLYVLPEYGHEYLPKISDWLRENQGPGSGGAGSPGSAGGPGSHHHHHH | 1062.5 ppm | 359.1 ppm | 
EZ-34: Lla-link1-HC263-H6, SEQ ID NO: 458 (protein) MTKINNWQDYQGSSLKPEDFDKFWDEKINLVSNHQFEFELIEKNLSSKVVNFYHLWFTAIDGAKIHAQLIVPKNLKEKYPAILQFHGYHCDSGDWVDKIGIVAEGNVVLALDCRGQGGLSQDNIQTMGMTMKGLIVRGIDEGYENLYYVRQFMDLITATKILSEFDFVDETNISAQGASQGGALAVACAALSPLIKKVTATYPFLSDYRKAYELGAEESAFEELPYWFQFKDPLHLREDWFFNQLEYIDIQNLAPRIKAEVIWILGGKDTVVPPITQMAAYNKIQSKKSLYVLPEYGHEYLPKISDWLRENQGPGSGGAGSPGSAGGPGSPSAQSQLPDKHSGLHERAPQRYGPEPEPEPEPIPEPPKEAPVVIEKPKPKPKPKPKPPAHDHKNQKETHQRHAAGSGGGGSPHHHHHH | 786 ppm | 242.2 ppm | 
EZ-35: Lla-link1-DenP308-H6, SEQ ID NO: 459 (protein) MTKINNWQDYQGSSLKPEDFDKFWDEKINLVSNHQFEFELIEKNLSSKVVNFYHLWFTAIDGAKIHAQLIVPKNLKEKYPAILQFHGYHCDSGDWVDKIGIVAEGNVVLALDCRGQGGLSQDNIQTMGMTMKGLIVRGIDEGYENLYYVRQFMDLITATKILSEFDFVDETNISAQGASQGGALAVACAALSPLIKKVTATYPFLSDYRKAYELGAEESAFEELPYWFQFKDPLHLREDWFFNQLEYIDIQNLAPRIKAEVIWILGGKDTVVPPITQMAAYNKIQSKKSLYVLPEYGHEYLPKISDWLRENQGPGSGGAGSPGSAGGPGSDPTKPPRTPTANTSRPHHNFGSGGGGSPHHHHH | 998 ppm | 260 ppm | 
EZ-27: Bpu-link1-H6, SEQ ID NO: 451 (protein) MQLFDLSLEELKKYKPKKTARPDFSDFWKKSLEELRQVEAEPTLESYDYPVKGVKVYRLTYQSFGHSKIEGFYAVPDQTGPHPALVRFHGYNASYDGGIHDIVNWALHGYATFGMLVRGQGGSEDTSVTPGGHALGWMTKGILSKDTYYYRGVYLDAVRALEVIQSFPEVDEHRIGVIGGSQGGALAIAAAALSDIPKVVVADYPYLSNFERAVDVALEQPYLEINSYFRRNSDPKVEEKAFETLSYFDLINLAGWVKQPTLMAIGLIDKITPPSTVFAAYNHLETDKDLKVYRYFGHEFIPAFQTEKLSFLQKHLLLSTGPGSGGAGSPGSAGGPGSHHHHHH | 2332.9 ppm | 634.9 ppm | 
EZ-28: Bpu-link1-HC263-H6, SEQ ID NO: 452 (protein) MQLFDLSLEELKKYKPKKTARPDFSDFWKKSLEELRQVEAEPTLESYDYPVKGVKVYRLTYQSFGHSKIEGFYAVPDQTGPHPALVRFHGYNASYDGGIHDIVNWALHGYATFGMLVRGQGGSEDTSVTPGGHALGWMTKGILSKDTYYYRGVYLDAVRALEVIQSFPEVDEHRIGVIGGSQGGALAIAAAALSDIPKVVVADYPYLSNFERAVDVALEQPYLEINSYFRRNSDPKVEEKAFETLSYFDLINLAGWVKQPTLMAIGLIDKITPPSTVFAAYNHLETDKDLKVYRYFGHEFIPAFQTEKLSFLQKHLLLSTGPGSGGAGSPGSAGGPGSPSAQSQLPDKHSGLHERAPQRYGPEPEPEPEPIPEPPKEAPVVIEKPKPKPKPKPKPPAHDHKNQKETHQRHAAGSGGGGSPHHHHHH | 2512.7 ppm | 534.2 ppm | 
